Measurements taken from patent publication US20100184701A1 (TREVENA, published 2010).
Non-standard residues stand in square brackets, D forms with d. No end group written: not given here. Sar = CNCC(=O)O

T1: human angiotensin 2 type 1 receptor (human, UniProt P30556 1-359)
T1 sequence (looked up): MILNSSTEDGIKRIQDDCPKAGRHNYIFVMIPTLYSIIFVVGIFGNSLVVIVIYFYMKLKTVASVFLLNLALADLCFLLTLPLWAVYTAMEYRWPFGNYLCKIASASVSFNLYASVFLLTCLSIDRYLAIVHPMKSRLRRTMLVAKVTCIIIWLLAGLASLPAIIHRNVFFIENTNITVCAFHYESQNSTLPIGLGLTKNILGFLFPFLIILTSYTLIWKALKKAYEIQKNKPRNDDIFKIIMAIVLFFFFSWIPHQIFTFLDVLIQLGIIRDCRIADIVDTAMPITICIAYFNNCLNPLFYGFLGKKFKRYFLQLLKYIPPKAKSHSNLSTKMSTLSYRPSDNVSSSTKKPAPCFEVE

T2: rat angiotensin 2 type 1 receptor (rat, UniProt P25095 1-359)
T2 sequence (looked up): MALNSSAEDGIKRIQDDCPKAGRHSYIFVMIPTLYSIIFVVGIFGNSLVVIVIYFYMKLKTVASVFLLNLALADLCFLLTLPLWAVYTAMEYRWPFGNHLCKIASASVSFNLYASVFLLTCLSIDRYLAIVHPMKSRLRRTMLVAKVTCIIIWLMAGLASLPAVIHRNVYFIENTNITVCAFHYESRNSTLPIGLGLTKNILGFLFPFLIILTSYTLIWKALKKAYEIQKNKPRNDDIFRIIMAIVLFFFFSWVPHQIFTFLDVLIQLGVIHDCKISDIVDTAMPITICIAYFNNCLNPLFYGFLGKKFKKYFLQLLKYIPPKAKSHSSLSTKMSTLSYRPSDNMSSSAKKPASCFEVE

B1: SEQ ID NO: 50 (peptide)
peptide: [Sar]RVYIKP[dA]-OH
modifications: N-terminus assumed
SMILES: CC[C@H](C)[C@H](NC(=O)[C@H](Cc1ccc(O)cc1)NC(=O)[C@@H](NC(=O)[C@H](CCCNC(=N)N)NC(=O)CNC)C(C)C)C(=O)N[C@@H](CCCCN)C(=O)N1CCC[C@H]1C(=O)N[C@H](C)C(=O)O
B2: SEQ ID NO: 55 (peptide)
peptide: [Sar]RVYVH-NH2
modifications: N-terminus assumed
SMILES: CNCC(=O)N[C@@H](CCCNC(=N)N)C(=O)N[C@H](C(=O)N[C@@H](Cc1ccc(O)cc1)C(=O)N[C@H](C(=O)N[C@@H](Cc1c[nH]cn1)C(N)=O)C(C)C)C(C)C
B3: SEQ ID NO: 40 (peptide)
peptide: [Sar]RVYEHP-NH2
modifications: N-terminus assumed
SMILES: CNCC(=O)N[C@@H](CCCNC(=N)N)C(=O)N[C@H](C(=O)N[C@@H](Cc1ccc(O)cc1)C(=O)N[C@@H](CCC(=O)O)C(=O)N[C@@H](Cc1c[nH]cn1)C(=O)N1CCC[C@H]1C(N)=O)C(C)C
B4: SEQ ID NO: 43 (peptide)
peptide: [Sar]RVYKHP-NH2
modifications: N-terminus assumed
SMILES: CNCC(=O)N[C@@H](CCCNC(=N)N)C(=O)N[C@H](C(=O)N[C@@H](Cc1ccc(O)cc1)C(=O)N[C@@H](CCCCN)C(=O)N[C@@H](Cc1c[nH]cn1)C(=O)N1CCC[C@H]1C(N)=O)C(C)C
B5: SEQ ID NO: 49 (peptide)
peptide: [Sar]KVYIHP[dA]-OH
modifications: N-terminus assumed
SMILES: CC[C@H](C)[C@H](NC(=O)[C@H](Cc1ccc(O)cc1)NC(=O)[C@@H](NC(=O)[C@H](CCCCN)NC(=O)CNC)C(C)C)C(=O)N[C@@H](Cc1c[nH]cn1)C(=O)N1CCC[C@H]1C(=O)N[C@H](C)C(=O)O
B6: SEQ ID NO: 53 (peptide)
peptide: [Sar]RVY[dA]HP-NH2
modifications: N-terminus assumed
SMILES: CNCC(=O)N[C@@H](CCCNC(=N)N)C(=O)N[C@H](C(=O)N[C@@H](Cc1ccc(O)cc1)C(=O)N[C@H](C)C(=O)N[C@@H](Cc1c[nH]cn1)C(=O)N1CCC[C@H]1C(N)=O)C(C)C
B7: SEQ ID NO: 41 (peptide)
peptide: [Sar]RVYFHP-NH2
modifications: N-terminus assumed
SMILES: CNCC(=O)N[C@@H](CCCNC(=N)N)C(=O)N[C@H](C(=O)N[C@@H](Cc1ccc(O)cc1)C(=O)N[C@@H](Cc1ccccc1)C(=O)N[C@@H](Cc1c[nH]cn1)C(=O)N1CCC[C@H]1C(N)=O)C(C)C
B8: SEQ ID NO: 42 (peptide)
peptide: [Sar]RVYHHP-NH2
modifications: N-terminus assumed
SMILES: CNCC(=O)N[C@@H](CCCNC(=N)N)C(=O)N[C@H](C(=O)N[C@@H](Cc1ccc(O)cc1)C(=O)N[C@@H](Cc1c[nH]cn1)C(=O)N[C@@H](Cc1c[nH]cn1)C(=O)N1CCC[C@H]1C(N)=O)C(C)C
B9: SEQ ID NO: 45 (peptide)
peptide: [Sar]RVYRHP-NH2
modifications: N-terminus assumed
SMILES: CNCC(=O)N[C@@H](CCCNC(=N)N)C(=O)N[C@H](C(=O)N[C@@H](Cc1ccc(O)cc1)C(=O)N[C@@H](CCCNC(=N)N)C(=O)N[C@@H](Cc1c[nH]cn1)C(=O)N1CCC[C@H]1C(N)=O)C(C)C

Columns and labels:
[1] = biological target: T1, human angiotensin 2 type 1 receptor; assay: cell-based or functional assay
[2] = biological target: T2, rat angiotensin 2 type 1 receptor; assay: cell-based or functional assay

| Binder | b-arrestin2 Max (%) [1] [%] | IP One Max (%) [2] [%] | b-arrestin2 Max (%) [2] [%] | IP One EC50 [1] [nM] | IP One Max (%) [1] [%] | b-arrestin2 EC50 [1] [nM] | IP One EC50 [2] [nM] | b-arrestin2 EC50 [2] [nM] | IP One EC50 (M) [1] [M] | IP One EC50 (M) [2] [M] |
| --- | --- | --- | --- | --- | --- | --- | --- | --- | --- | --- |
| DRVYIHPA [SEQ ID NO: 25] | 57.9 | 14.1 | 77 | – | – | – | – | – | – | – |
| DRVYIHPG-OH [SEQ ID NO: 56] | 104 | 98.4 | 98.5 | 660 | 96.5 | 550 | 20 | 160 | – | – |
| VYIHPF (cyclic, as printed: Cyclo(...)) [SEQ ID NO: 38] | 43.1 | 20.8 | 66.4 | – | – | 680 | – | 2500 | > 1e-05 | – |
| ARVYVHPA (NMAla (N-methyl-L-alanine) at 1) [SEQ ID NO: 33] | 54.9 | – | 86.9 | – | – | – | – | 31 | > 1e-05 | > 1e-05 |
| XRVYIHP (Sar (sarcosine) at 1; D-Pro at 7; C-terminal amide (NH2)) [SEQ ID NO: 51] | 20.2 | – | 5.8 | – | – | 330 | – | 110 | > 1e-05 | > 1e-05 |
| XRVFIHPA (Sar (sarcosine) at 1; D-Ala at 8) [SEQ ID NO: 48] | 48.1 | 13.9 | 42.1 | – | – | 1800 | – | – | > 1e-05 | – |
| B1 | 56.8 | – | 85.6 | – | – | 680 | – | 270 | > 1e-05 | > 1e-05 |
| XRVYVHP (Sar (sarcosine) at 1) [SEQ ID NO: 54] | 58.6 | – | 83 | – | – | 42 | – | 17 | > 1e-05 | > 1e-05 |
| B2 | 92.7 | 98.8 | 95.6 | 96 | 97.6 | 220 | 6.8 | 42 | – | – |
| ARVYIHPA (NM-D-Ala (N-methyl-D-alanine) at 1) [SEQ ID NO: 47] | 80.5 | – | 72.2 | – | – | 4800 | – | 2100 | > 1e-05 | > 1e-05 |
| XRVYYHP (Sar (sarcosine) at 1) [SEQ ID NO: 52] | 45.9 | 8 | 83.8 | – | – | 1400 | 300 | 440 | – | – |
| B3 | 53.2 | – | 87.9 | – | – | 95 | – | 31 | > 1e-05 | > 1e-05 |
| GRVYIHPA (Me2G (N,N-dimethylglycine) at 1) [SEQ ID NO: 32] | 55.6 | 6.8 | 80.2 | – | – | – | – | – | – | – |
| ARVYIHPA (NMAla (N-methyl-L-alanine) at 1) [SEQ ID NO: 34] | 53 | – | 81.7 | – | – | 25 | – | 32 | > 1e-05 | > 1e-05 |
| RVYIHPRVYIHPRVYIHP (cyclic, as printed: Cyclo(...)) [SEQ ID NO: 36] | 39.5 | 19.2 | 32.8 | – | – | 1200 | 100 | 1900 | > 1e-05 | – |
| B4 | 42.7 | 17.9 | 64.8 | – | – | 2100 | 260 | 910 | > 1e-05 | – |
| B5 | 72.7 | – | 52.9 | – | – | 1000 | – | 630 | > 1e-05 | > 1e-05 |
| GRVYVHPA (Me2G (N,N-dimethylglycine) at 1) [SEQ ID NO: 31] | 58.1 | 6.2 | 75.9 | – | – | 100 | 13 | – | – | – |
| B6 | 33.6 | – | 12.2 | – | – | 1600 | – | 420 | > 1e-05 | > 1e-05 |
| B7 | 30.1 | – | 53.1 | – | – | 1600 | – | 660 | > 1e-05 | > 1e-05 |
| FVYIHPFVYIHPFVYIHP (cyclic, as printed: Cyclo(...)) [SEQ ID NO: 37] | 62.3 | 14.7 | 60.7 | – | – | – | – | 1900 | > 1e-05 | – |
| ARVYIHPA (NMAla (N-methyl-L-alanine) at 1; D-Ala at 8) [SEQ ID NO: 46] | – | – | – | – | – | – | – | 63 | > 1e-05 | > 1e-05 |
| ARVYIHPA (NMAla (N-methyl-L-alanine) at 1; D-Ala at 8) [SEQ ID NO: 44] | – | 14.6 | – | – | – | – | 8.2 | – | > 1e-05 | – |
| B8 | 46.4 | – | 74.9 | – | – | 630 | – | 270 | > 1e-05 | > 1e-05 |
| B9 | 53.3 | 10.2 | 91.7 | – | – | 30 | 26 | 27 | > 1e-05 | – |
